Source: the DeepSol protein solubility set

Test: soluble on expression in E. coli; label from the status in PepcDB or PDB records

| Sequence | soluble on expression in E. coli |
| --- | --- |
| MLRTFRIGGIHPPENKLSAGKPVEVLPIPSQVVIPLGQHIGAPATATVKKGDEVKVGTIIAQAGGFVSANIHSSVSGKVLKIDNVYDSSGYPKPAVFISVEGDEWEEGIDRSPAIVKECNLDAKEIVAKISAAGIVGLGGATFPTHVKLSPPPGNKAEILIINAVECEPYLTSDHVLMLEHGEEIMIGVSILMKAIQVNKAVIGVENNKKDAIAHLTKLATAYPGIEVMPLKVQYPQGGEKQLIDAVIRKQVKSGALPISTGAVVQNVGTVFAVYEAVQKNKPLVERIVTVTGKKLSRPSNLLVRIGTPIAALIEAAGGLPENTGKIIGGGPMMGRALLSPDVPVTKGSSGVLILDREEAVRKPMRDCIRCAKCVGVCPMGLNPAFLMRDTLYKSWETAEKGNVVDCIECGSCSFTCPANRPLLDYIRQAKKTVMGIQRARKQLEHHHHHH | not soluble |
| MLRVLVRTGSEACRAVSTSTAVLSVHPVVKSEDLSAKEIWDRRSKLRVPKLQKDEQLSSKVYFAPEWDLEKKPNLDEGFVNPLKGYGMTPEKWEYYNKVVWPPNYIVPETGLPKPKEVFHCKESVHFSPKRMWAACQLVWKMNVDEAITQLDMQQLKACNLLMDTIKKAKSRAADEFHIEYPSQMYVADAFPVQSNIVKGARRHAHDNWNTIRYRYIHIFVRLEEGPAPQQKQRHPQKNGWDHMDEYYNYLRSRTVKYSI | not soluble |
| MLSDIQHDQFGFIKGCIISVIWLSLSRTLNRDQLNLDRFEFWQPTSQLLVLDVCLFDAFALEHHHHHH | not soluble |
| MLSEQLLAQQHLPEKLKKNIPGLYFHGRVGRGKTMLMDLFYQHLAIKNKKRIHFHHFMESVHQQLAQLTGQSEPLSHIAAKWAQNIDLLCFDEFYVSDIGDAMLLSGLFSALFKQGVTLVATSNCQPEQLYRNGLQRERFLPTIALINQHCQIVSINGDVDHRRTKLSKNSCYNNYFLLANEGNEKLIERFQSLTDAEMLVSGEIEINHRQLCYLAQSANVIFFDFFALCSGPRSQRDYMVLAKDFDTVCIANVPKFSGELVPAVFSGVEDSYQRSGVLMGELQQLDDEARRFIALVDEFYDQNVKLIVSAQVDIFELYQGQQLAFEFERCQSRLIEMQQSLEHHHHHH | not soluble |
| MLSKSKRSCRRRETLRIGEKMSAPITNLQAAQRDAIMNRPAVNGFPHLAETLRRAGVRTNTWWLPAMQSLYETDYGPVLDQGVPLIDGVAEVPAFDRTALVTALRADQAGQTSFREFAAAAWRAGVLRYVVDLENRTCTYFGLHDQTYMEHYAAVEPSGGAPTS | not soluble |
| MLSPQTTQVAIIGAGPSGSIAAALLNKHNINCIILEKSTFPRFSIGESLLPACMESIKHAGMLNAVEDACFQFKDGAAFHCNGTFTSFDFTDKFTDGAGTTFQVQRGNFDKVLADCAKEQGVEIRYQHEITDVDVNAEKPLLSVLDENGTPYQIQADFILDASGFGRVLPKLLELEEPSCLPPRRAIFTHIKDNITDESYDRNKILVSVHPTNTQVWYWLIPFSNGTCSFGVVGEPEFFDAYSEDKVTALKQLAEEESNLKHLLNQAEYPNPCGEIMGYSANVSKLFDKNFALLGNAGEFLDPVFSSGVTIAMKSAELAADLLIKQFNQEDVNWQQDYSDKLMKGVNAFRCYVEGWYEGTFQDVIFHENPNPKIKQMICAILAGYAWDESNPFVAEPERRLKVVAELCKPLEHHHHHH | not soluble |
| MLSVFPLAGMSLASLHYSTHRVDQTQVYMVAAPMADYRVVMTEPAASGQDTYLETTAAFARRTGAVAAMNTNFFRWLNAQSLRSFQDYQKWIMGESNPEGISYRALRQTCLSGRGTIPAGVAGAYIVNGRVVRPYEGGYSGIVNFPAQGGIEFYRGRLPEQPFNVVSGSQQLLDGGRKLPVDGSDRTSPKAILGRRGNEYVFVVSDGRGNGGSPGLSFLQLQDFLLQQGVTEATAMDGGESATLVVEGQVKNHPRDRYCELARWLPAPALTLINLEEEAQETAMAMGRSLRPVGANIGLVPRHRPPAFLSFAFWEFLQQRLLARLRAWRDAVLEHHHHHH | not soluble |
| MLSVIIITKNEEANIRRCLESVHFADEIIVLDSGSTDNTLAIAREYTDKVFSTDWQGYGIQKDRALQKAQGDWVLNLDADESVSSELRQEILQAISSDTADAFRIPIQMIFYNQVLKYSGSPKRHIRLFKRENASYSKDIVHEKVLIPVNARVGKLKKPIWHHSFSDVHHVLYKLNKYSSYSAKIRIESNEKVGLVKTFFSALWMFVRCLFLQKGFLDGRAGFLFAVFGAQGAFYRGVKQIYKDRDINKLPSVNHIKEELEHHHHHH | soluble |
| MLTEIGKIIRQRRQQHGITIEQLAEQSNVSISLISRLERGKVDNIKLQSLTAIAETLNLKIADFFRDELLQSPNVVALLDYLSDLPAHQREELAGTLLKLLRLSKS | not soluble |
| MLTIAHRLQRESISSGRHSSRISAVFSSPIRASSESRSQHAASSSSSIVSRPESVDEDEEEDGVWPSVTSGGVLVGCACSNSSLTRNESIVVSEGSQALYIASAATAMNGDSVRRRGGDAPDDDEAAGAAPVPAEECNLDALFERFFGDGGADAIRFEPMLPRVYELTLPSIDSRLNFINVGRRHAAFLRHVYGGCDRCEHAAVLNEKMKLFTAVITKLLDVNGILERRETTD | not soluble |
| MLTNQELTAKVKEISLTYFKQSFDHEAKWNQRLRTTGGRFFPKDLHLDFNPKMAELKDFEGVILHELTHYHLYRSKRGYKHRDADFKRLLSQVGGLRYAPSVIDKKIKYYYSCQNCGQLYPRQRKIDTKKYRCGKCRGKLILKTSGNLEHHHHHH | soluble |
| MLTRLAVEAAEQARLAAEVEAQRIAAETAEHARVVAEAEAKRVADEQALFAAEAEAHRITAEAAEQARMEAEAQAQRDADEHARVTAEAQALEAGKTLRLPEAGTPQLGAVAGVISVTAGSGLFLDATIQAAIEILAALVGTAVSSTTAVGIGTLLYSPSLGNGELPGRMLDLPARVLMPDLPDALNDVAATGGTVDMPYRIYGDQSKYSVVATQPEGGFSPKVPVRALILDPVANAYTFTTSDTPPITLTFPIAAPENSSTTTVAQPIETPAYTGITLEPIEVKAEPLPATSPLDIRDAIYVYPVNSGLPPVYVVFSSPYEGATTKGEHSGRMYDPDNAGGPTQNLDWTTASVTQNGIDLVKLHTGRFEPSDANAVMIDRLEKILRSELSMTDTDKRFYTHELRELERYRALGVADGVEGEVWNNAHTATLEDYKLKDSSESFYTPEAILEHHHHHH | soluble |
| MLTSFGKTLRKLRIDHSERLLDMADKPGVSVAFLSSVEIGKKSVPVGMEEKIIEFYSLDKAMASLLKKEADACVERTSQSNLLIHLVVKLLACFLEI | not soluble |
| MLTSGETVNVVLDFTKCTSTDDQKKPGMMRGDLRISAFLIRPDNSISFSDEHFTITTMDKEPIYQFLRYSLKPDETASFTMTTLSMPEKAHKGEVIAYNCKFATALEHHHHHH | not soluble |
| MLVRKVCQNFFQNALAPFHKYRQSALMDATVALINGASLTLTSIGRFLPGQAQVKNKIKRVDRLLGNESLHRDIPLIFNNIIAMLTRKLSLCVVAVDWSGYHSHEYHILRASLICDGRSIPLLSQIVPSAEQQSEQIHKTFLNALARAVNPDARVILEHHHHHH | not soluble |
| MLVRLGYVAMTMNLKDSSPSGTVTVKTLAGLNEDETRLNKLRKVTAANLHNTLRILRYNKAYNISVYRFTSKLVPLATHPMVSHWDYVGEFRNEFKSLGDFVKENNFRVSAHPDHYTLLNSPSKEVFEASVRDLDYHVKLFEAMGLEDYKYKLVMHIGGLYKNKQTSVERFKENYAILPDRIRKRLIFENDDKIYTARDVLDICKELKVPMVLDVHHHNCVNNGERLEDMLKEIFDTWKDEYFPPKIHFSTPKSKENFRSHADEIDVNEFYRFLQIAKKLKKDFDVMIEAKNKDNALFKLSRELKTFDDIRWIDEGHFEIR | not soluble |
| MLVVPAIDLFRGKVARMIKGRKENTIFYEKDPVELVEKLIEEGFTLIHVVDLSNAIENSGENLPVLEKLSEFAEHIQIGGGIRSLDYAEKLRKLGYRRQIVSSKVLEDPSFLKSLREIDVEPVFSLDTRGGRVAFKGWLAEEEIDPVSLLKRLKEYGLEEIVHTEIEKDGTLQEHDFSLTKKIAIEAEVKVLAAGGISSENSLKTAQKVHTETNGLLKGVIVGRAFLEGILTVEVMKRYAR | soluble |
